Assay results reported in patent publication US20100255020A1, “METHOD FOR INDUCING CYTOTOXIC T-CELLS, CYTOTOXIC T-CELL INDUCERS, AND PHARMACEUTICAL COMPOSITIONS AND VACCINES EMPLOYING THEM” (NEC CORPORATION, priority 2007, published 2010).

Experiments:
[1] = target: HLA-A*2402 molecule (human); assay: flow cytometry, acid-stripped C1R-A24 cells reconstituted with beta2m and peptide dilutions, stained with mAb 17A12
[2] = target: HLA-A*0206 molecule (human); assay: flow cytometry, RA2.6 (RMAS-HLA-A*0206) stabilisation assay with peptide dilutions, stained with mAb BB7.2
[3] = target: HLA-A*0201 molecule (human); assay: flow cytometry, acid-stripped JY cells reconstituted with beta2m and peptide dilutions, stained with mAb BB7.2

| Binder | -log Kd [1] | -log Kd [2] | -log Kd [3] |
| --- | --- | --- | --- |
| ALLPAVPSL (modifications not checked) [W10 peptide] | 9.16 -log Kd | 7.74 -log Kd | 7.84 -log Kd |
| RVPGVAPTL (modifications not checked) [W302 peptide] | 7.67 -log Kd | 6.61 -log Kd | 6.41 -log Kd |
